Source: article PMC5118804

What was measured:
[1] = molecular target: MS2V5-eIF4G 84-295 (eIF4G deletion mutant that only contains the interaction site for PABPC1) (UniProt Q04637)
[2] = molecular target: FLAGemGFP-tagged PAIP2 PAM2 (PAM2 motif of PABP-interacting protein 2)
[3] = molecular target: FLAGemGFP-tagged PAIP2 PAM2 (PAM2 motif of PABP-interacting protein 2); remark: listed apart in the source
[4] = molecular target: FLAGemGFP-tagged eRF3a -N PAM2 (N-terminal PAM2 motif of eRF3a)
[5] = molecular target: FLAGemGFP-tagged eRF3a -C PAM2 (C-terminal PAM2 motif of eRF3a)
[6] = molecular target: FLAGemGFP-tagged eRF3a PAM2 (overlapping N- and C-terminal PAM2 motifs of eukaryotic release factor 3a)

UniProt Q04637, sequence (Q04637 84-295, stated change not applied): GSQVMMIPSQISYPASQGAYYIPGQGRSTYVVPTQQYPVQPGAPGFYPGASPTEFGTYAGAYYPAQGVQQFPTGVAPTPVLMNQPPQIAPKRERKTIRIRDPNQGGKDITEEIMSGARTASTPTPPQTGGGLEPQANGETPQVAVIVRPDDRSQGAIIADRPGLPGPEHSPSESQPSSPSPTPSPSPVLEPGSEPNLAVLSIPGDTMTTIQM

“cytoplasmic poly(A)-binding protein (PABPC1) (from UniProt P11940 1-636) (natural protein)” showed a reporter mRNA level (TPI-4MS2 reporter with the SMG5 3' UTR, Northern blot, HeLa) upon tethering MS2V5-eIF4G 84-295, relative to MS2V5-GST [1] of 5 fold, a reporter mRNA level (beta-globin 4MS2/4PP7 double tethering reporter, Northern blot, HeLa) upon tethering MS2V5-PAIP2 PAM2 upstream of PP7-tethered BTZ, relative to GST upstream of BTZ (Fig. 5d) [2] of 8 fold and a reporter mRNA level (beta-globin 4MS2/4PP7 double tethering reporter, Northern blot, HeLa) upon tethering MS2V5-PAIP2 PAM2 upstream of PP7-tethered RNPS1, relative to GST upstream of RNPS1 (Fig. 5c) [2] of 6 fold. For the same substance, the reporter mRNA level (TPI-4MS2 reporter with the SMG5 3' UTR, Northern blot, HeLa) upon tethering MS2V5-PAIP2 PAM2, relative to MS2V5-SYNZIP 1 (Fig. 2c) [3] was 4 fold, the reporter mRNA level (FLAG-TPI-4MS2-SMG5, Northern blot, HeLa) upon tethering the MS2V5-tagged N-terminal eRF3a PAM2 motif (Fig. 3b) [4] was 5 fold and the reporter mRNA level (FLAG-TPI-4MS2-SMG5, Northern blot, HeLa) upon tethering the MS2V5-tagged C-terminal eRF3a PAM2 motif (Fig. 3b) [5] was 5 fold. It also gave a reporter mRNA level (FLAG-TPI-4MS2-SMG5, Northern blot, HeLa) upon tethering the MS2V5-tagged overlapping eRF3a PAM2 motif, relative to MS2V5-GST (Fig. 3b) [6] of 5 fold.
